Data taken from PMC9966725, “Preclinical Evaluation of a Lead Specific Chelator (PSC) Conjugated to Radiopeptides for ^203Pb and ^212Pb-Based Theranostics” (Pharmaceutics, 2023).

Experiments:
[1] = Radiochemical stability of radiometal complex in saline, radio-iTLC; format: physicochemical; conditions: for radiochemical purity of progeny: progeny of 37 MBq mL^-1 [^212Pb]Pb-PSC-PEG-T, 24 h in saline at room temperature; for radiochemical purity: single species, 7.4 MBq mL^-1, n = 2
Method: (§1) Using [^203Pb]Pb-PSC-PEG-T surrogate, radiochemical stability of [^203Pb]Pb-PSC-PEG-T in saline was monitored for 72 h. Similarly, single species of [^212Bi]Bi-PSC-PEG-T in saline were also monitored for 5 h (five half-lives of ^212Bi). [^203Pb]Pb-PSC-PEG-T and [^212Bi]Bi-PSC-PEG-T were radiolabeled and purified on Sep-Pak® C18 SPE columns as previously described. Next, 7.4 MBq mL^−1 of purified [^203Pb]Pb-PSC-PEG-T and [^212Bi]Bi-PSC-PEG-T were stored in saline supplemented with 5% EtOH and 1 mg mL^−1 sodium ascorbate for 72 h and 5 h, respectively, followed by analysis of radiochemical purity by radio-iTLC method. Then, radiochemical stability of [^212Pb]Pb-PSC-PEG-T and progeny [^212Bi]Bi-PSC-PEG-T were determined by radio-iTLC after storage of 37 MBq mL^−1 radiolabeled [^212Pb]Pb-PSC-PEG-T in saline for 24 h, and further confirmed by radio-HPLC analysis. In human serum, radiochemical stability of [^212Pb]Pb-PSC-PEG-T and progeny [^212Bi]Bi-PSC-PEG-T were determined after incubation of 3.7 MBq [^212Pb]Pb-PSC-PEG-T in 1 mL human serum at 37 °C for 24 h. In addition, metabolic stability of Pb-PSC-PEG-T radiopeptide in serum was determined by radio-HPLC after incubating [^203Pb]Pb-PSC-PEG-T surrogate in human serum for 55 h (five half-lives of ^212Pb). Following the incubation, serum protein was precipitated in ice-cold methanol (1:1.5 v/v) for 10 min, followed by centrifugation at 10,000× g for 10 min. The supernatant was collected and analyzed on radio-HPLC.
In radio-iTLC analysis, 0.1 M NaOAc with 1 mM DTPA was used as mobile phase for ^203Pb, ^212Pb, ^212Bi. Citric acid (0.1 M) was used as mobile phase for ^68Ga. Upon radio-iTLC analysis, 2 µL aliquot sample was spotted on the radio-iTLC strips (2 × 10 cm) and developed in the mobile phase. Radioactivity of ^203Pb and ^212Pb was measured on NaI(Tl) gamma spectroscope using 279 keV and 238 keV gamma peaks, respectively. Radioactivity of ^212Bi on radio-iTLC was measured on the Ludlum Model 3030 α-particle counter. Radio-HPLC analysis was conducted on Agilent 1260 (Agilent, Santa Clara, CA, USA). Binary mobile phases were applied to run 5–60% phase B (acetonitrile) over phase A (0.1% TFA in water) over 10 min on ZORBAX RR Eclipse XDB-C18 column (4.6 × 150 mm, 5 µm). Radioactivity of ^203Pb was measured on flow-through 105S-1 single channel radiation detector (Corroll & Ramsey, Fort Collins, CO, USA). To measure ^212Pb and ^212Bi activity on radio-HPLC, eluate was collected every 10 s on a HPLC fraction collector. Radioactivity of ^212Pb and ^212Bi in each collected eluate was measured on Cobra II automated gamma counter using 238 keV and 583 keV gamma peaks immediately after collection.

[2] = Stability of radiopeptide in saline, radio-HPLC; format: physicochemical; conditions: 24 h storage in saline, C18, fractions counted on gamma counter
Method: as §1, with “Following the incubation, serum protein was precipitated in ice-cold methanol (1:1.5 v/v) for 10 min, followed by centrifugation at 10,000× g for 10 min.” left out, “radio-HPLC. […]” for “radio-HPLC.”

[3] = In vivo biodistribution in naïve tumor-free CD-1 Elite mice; conditions: female, mouse, iv, 74 kBq
Method: (§2) Biodistribution of [^212Pb]Pb-PSC-PEG-T and progeny ^212Bi^3+ was determined in two animal models, including female naïve CD-1Elite mice and athymic mice bearing AR42J tumor xenografts. SSTR2-positve AR42J cells were cultured in 10% Minimum Essential Medium (MEM) supplemented with 10% fetal bovine serum (FBS), 100 units mL^−1 penicillin, and 100 units mL^−1 streptomycin 37 °C in a humidified atmosphere (5% CO2). All animal studies were performed in accordance with the Guide for the Care and Use of Laboratory Animals, according to protocols approved by the University of Iowa Animal Care and Use Committee (protocol#1122453 approved on 16 February 2022). Xenograft of AR42J tumor was developed by subcutaneous (s.c.) injection of 1 × 10^6 cells at the left shoulder of female athymic nude mice. [^212Pb]Pb-PSC-PEG-T was radiolabeled and purified as described above, and kept at room temperature away from light for 3 h before injection, to allow progeny ^212Bi to approach equilibrium before injection. Upon assay, 74 kBq [^212Pb]Pb-PSC-PEG-T (peptide mass = 5–10 pmole) were injected via tail vein (n = 2–3). Animals were euthanized at designated time points (1, 5, 24 h for naïve CD-1 mice; 1, 4 h for AR42J-bearing mice). Organs of interest and tumors were collected, rinsed, and weighed. Radioactivity of ^212Pb and ^212Bi in each sample was measured on an automated gamma counter by 238 keV and 583 keV gamma peaks, respectively. ^212Bi was purified from the generator eluate on RE2 resin and collected in pH = 6 sodium acetate as described above. Biodistribution of free ^212Bi in normal organs was determined at 2 h post injection of 74 kBq ^212Bi in naïve female CD-1 Elite mice (n = 3). Radioactivity in samples was decay corrected and data were expressed as percent injected dose per gram of tissue (%ID/g). SPECT imaging of [^203Pb]Pb-PSC-PEG-T and [^212Pb]Pb-PSC-PEG-T in female athymic nude mice bearing AR42J xenograft (n = 2) was conducted on Bioemtech Gamma-Eye Imaging system (Bioemtech, Athens, Greece) with 30–500 keV dynamic range and 1.9 mm spatial resolution. Whole body 2D-SPECT imaging of [^203Pb]Pb-PSC-PEG-T and [^212Pb]Pb-PSC-PEG-T were collected at 3 h and 24 h (n = 2) post injection of 1.8 MBq [^203Pb]Pb-PSC-PEG-T (52 MBq nmole^−1) and 3.7 MBq [^212Pb]Pb-PSC-PEG-T (20 MBq nmole^−1). SPECT images were generated by acquiring ten 30 s projections. Imaging data were reconstructed and normalized to percent of injected dose (%ID) in tumor and kidneys based on region of interest (ROI) analysis on VISUAL-Eyes software (Bioemtech, Athens, Greece). Animals were euthanized after conclusion of the study at 24 h post injection. Tumor xenografts and organs of interest were collected and weighed. Radioactivity of ^203Pb or ^212Pb was determined on automated gamma counter and normalized to %ID/g.

[4] = test system: SSTR2-positive AR42J xenografts; experiment: in vivo; set-up: species or system mice; conditions: female, athymic nude, mouse, iv, 74 kBq, 1 h
Method: as §2

in vivo = experiment: in vivo; set-up: species or system mice; conditions: female, athymic nude, mouse, total radioactivity; for tissue uptake at 1 h: iv, 74 kBq
Method: as §2

[5] = TCMC chelator in an anti-CD37 radioimmunoconjugate; cited from earlier work
Source text: Potential ambiguity in these predictions arises due to the nature of the ^212Pb decay series. The decay of ^212Pb to ^212Bi might lead to a decoupling of the progeny ^212Bi from the chelator, adding uncertainty to the biodistribution of radioactivity, especially the α-emitters (i.e., ^212Bi, ^212Po). Using particle and heavy ion transport code system (PHITS) modeling, we have shown that α-particles contribute to more than 90% of dose deposition in 10 µm diameter single cells and 1 cm diameter micro-metastasis, while the dose from β-particles becomes more significant ...

[6] = total radioactivity, accumulation in kidneys
[7] = total radioactivity, accumulation in pancreas

C[C@@H](O)[C@@H]1NC(=O)[C@H](CCCCN)NC(=O)[C@@H](Cc2c[nH]c3ccccc23)NC(=O)[C@H](Cc2ccc(O)cc2)NC(=O)[C@@H](NC(=O)[C@@H](Cc2ccccc2)NC(=O)CCOCCOCCNC(=O)CN2CCN(CC(=O)O)CCN(CC(N)=O)CCN(CC(=O)O)CC2)CSSC[C@@H](C(=O)N[C@H](CO)[C@@H](C)O)NC1=O [[^212Bi]Bi-PSC-PEG-T] [metal not drawn]
radiochemical purity of progeny ([1]; 1 µM PSC-PEG-T): 91.8%
radiochemical purity of progeny ([1]; 3 µM PSC-PEG-T): 94.8%
radiochemical purity of progeny ([1]; 5 µM PSC-PEG-T): 97.1%
radiochemical purity ([1]; 1 h incubation in saline (5% EtOH, 1 mg mL^-1 sodium ascorbate), 1 µM PSC-PEG-T precursor): 94.1%
radiochemical purity ([1]; 2 h incubation in saline (5% EtOH, 1 mg mL^-1 sodium ascorbate), 1 µM PSC-PEG-T precursor): 96.1%
radiochemical purity ([1]; 3 h incubation in saline (5% EtOH, 1 mg mL^-1 sodium ascorbate), 1 µM PSC-PEG-T precursor): 92.4%
radiochemical purity ([1]; 5 h incubation in saline (5% EtOH, 1 mg mL^-1 sodium ascorbate), 1 µM PSC-PEG-T precursor): 92.3%
radiochemical purity ([1]; 5 h incubation in saline (5% EtOH, 1 mg mL^-1 sodium ascorbate), 5 µM PSC-PEG-T precursor): > 98%
radiochemical purity (radiometal remained incorporated as radiopeptide) [2]: > 95%
accumulation in kidneys ([3]; 1 h): 45.9 ± 3.7 %ID/g
accumulation in pancreas ([3]; 1 h): 7.3 %ID/g
activity remained in blood ([3]; 1 h): less than 0.2 %ID/g
accumulation in kidneys ([3]; 5 h): 29.8 %ID/g
accumulation in pancreas ([3]; 5 h): 3.5 %ID/g
residual activity in kidneys ([3]; 24 h): 3.1 ± 1.4 %ID/g
accumulation in adrenal glands [4]: 8.1 %ID/g
accumulation in liver [4]: 2.1 %ID/g
accumulation in spleen [4]: 1.4 %ID/g

C[C@@H](O)[C@@H]1NC(=O)[C@H](CCCCN)NC(=O)[C@@H](Cc2c[nH]c3ccccc23)NC(=O)[C@H](Cc2ccc(O)cc2)NC(=O)[C@@H](NC(=O)[C@@H](Cc2ccccc2)NC(=O)CCOCCOCCNC(=O)CN2CCN(CC(=O)O)CCN(CC(N)=O)CCN(CC(=O)O)CC2)CSSC[C@@H](C(=O)N[C@H](CO)[C@@H](C)O)NC1=O [[^203Pb]Pb-PSC-PEG-T, metal not drawn]
tissue uptake at 24 h (in vivo; activity in lungs): 0.6 %ID/g
tissue uptake dose at 3 h (in vivo; kidneys uptake (SPECT ROI)): 8.3 %ID
tissue uptake dose at 24 h (in vivo; kidneys uptake (SPECT ROI)): 0.8 %ID
tissue uptake dose at 3 h (in vivo; tumor uptake (SPECT ROI)): 1.8 %ID
tissue uptake dose at 24 h (in vivo; tumor uptake (SPECT ROI)): 1.5 %ID

NC(=O)CN1CCN(CC(N)=O)CCN(CC(N)=O)CCN(CC(N)=O)CC1 [TCMC, 1,4,7,10-Tetrakis(carbamoylmethyl)-1,4,7,10-tetraazacyclododecane]
^212Bi^3+ ejected from chelator [5]: 16%

C[C@@H](O)[C@@H]1NC(=O)[C@H](CCCCN)NC(=O)[C@@H](Cc2c[nH]c3ccccc23)NC(=O)[C@H](Cc2ccc(O)cc2)NC(=O)[C@@H](NC(=O)[C@@H](Cc2ccccc2)NC(=O)CCOCCOCCNC(=O)CN2CCN(CC(=O)O)CCN(CC(N)=O)CCN(CC(=O)O)CC2)CSSC[C@@H](C(=O)N[C@H](CO)[C@@H](C)O)NC1=O [[^212Pb]Pb-PSC-PEG-T, metal not drawn]
tissue uptake at 1 h [3, 6]: 47.1 ± 7.9 %ID/g
tissue uptake at 5 h [3, 6]: 26.6 %ID/g
tissue uptake at 1 h [3, 7]: 5.2 %ID/g
tissue uptake at 5 h [3, 7]: 2 %ID/g
tissue uptake at 1 h ([3]; total radioactivity, activity remained in blood): < 0.2 %ID/g
tissue uptake at 24 h ([3]; total radioactivity, residual activity in kidneys): 2.7 ± 1.2 %ID/g

C[C@@H](O)[C@@H]1NC(=O)[C@H](CCCCN)NC(=O)[C@@H](Cc2c[nH]c3ccccc23)NC(=O)[C@H](Cc2ccc(O)cc2)NC(=O)[C@@H](NC(=O)[C@@H](Cc2ccccc2)NC(=O)CCOCCOCCNC(=O)CN2CCN(CC(=O)O)CCN(CC(N)=O)CCN(CC(=O)O)CC2)CSSC[C@@H](C(=O)N[C@H](CO)[C@@H](C)O)NC1=O [[^203Pb]Pb-PSC-PEG-T] [metal not drawn]
free ^203Pb ([1]; 72 h storage in saline with 5% EtOH and 1 mg mL^-1 sodium ascorbate, 7.4 MBq mL^-1, 1 and 5 µM precursor, n = 2): less than 1%
^203Pb remained in PSC-PEG-T ([1]; 72 h storage in saline with 5% EtOH and 1 mg mL^-1 sodium ascorbate, 7.4 MBq mL^-1, regardless of PSC-PEG-T precursor concentration (1 and 5 µM), n = 2): More than 99%

C[C@@H](O)[C@@H]1NC(=O)[C@H](CCCCN)NC(=O)[C@@H](Cc2c[nH]c3ccccc23)NC(=O)[C@H](Cc2ccc(O)cc2)NC(=O)[C@@H](NC(=O)[C@@H](Cc2ccccc2)NC(=O)CCOCCOCCNC(=O)CN2CCN(CC(=O)O)CCN(CC(N)=O)CCN(CC(=O)O)CC2)CSSC[C@@H](C(=O)N[C@H](CO)[C@@H](C)O)NC1=O [[^212Bi]Bi-PSC-PEG-T, metal not drawn]
tissue uptake at 1 h (in vivo; accumulation in bones): 2.5 %ID/g
tissue uptake at 1 h (in vivo; accumulation in kidneys): 38.1 %ID/g
